Target: hTau40 (Tau, 2N4R) 1-441 (UniProt P10636)
Assay: fluorescence lifetime (TCSPC) over time
[1] = reference: unlabelled P0-Tau (E. coli), sites S202,T205,T212,S214,T231,S235,S262,S356,S396,S404,Y310,S324,T153

other: final average lifetime [1] | Substance | also measured
– | hTau40 (Tau, 2N4R) 1-441 (from UniProt P10636-8) P12-Tau incubated with alkaline phosphatase (P4-Tau) | other: final average lifetime (reference: P12-Tau untreated, sites S202,T205,T212,S214,T231,S235,S262,S356,S396,S404): weaker; reference 0.6
– | hTau40 (Tau, 2N4R) 1-441 (from UniProt P10636-8) P20-Tau (Sf9 cells treated with okadaic acid) | other: final average lifetime (reference: P12-Tau (Sf9, no okadaic acid)): stronger; reference 0.6
stronger; reference 3.8 | hTau40 (Tau, 2N4R) 1-441 (from UniProt P10636-8) unlabelled P12-Tau (Sf9) | –
stronger; reference 3.8 | hTau40 (Tau, 2N4R) 1-441 (from UniProt P10636-8) unlabelled P20-Tau (Sf9 + okadaic acid) | –

Reference: paper PMC4256367
